{"source": "paper PMC6900284", "target": "CPSF160;WDR33;CPSF30;Fip1 (human;human;human;human, UniProt Q10570;Q9C0J8;O95639-3;Q6UN15-4 1-1443;1-410;1-178;130-195, |||)", "sequence (Q10570 whole entry, chain 1 of 4)": "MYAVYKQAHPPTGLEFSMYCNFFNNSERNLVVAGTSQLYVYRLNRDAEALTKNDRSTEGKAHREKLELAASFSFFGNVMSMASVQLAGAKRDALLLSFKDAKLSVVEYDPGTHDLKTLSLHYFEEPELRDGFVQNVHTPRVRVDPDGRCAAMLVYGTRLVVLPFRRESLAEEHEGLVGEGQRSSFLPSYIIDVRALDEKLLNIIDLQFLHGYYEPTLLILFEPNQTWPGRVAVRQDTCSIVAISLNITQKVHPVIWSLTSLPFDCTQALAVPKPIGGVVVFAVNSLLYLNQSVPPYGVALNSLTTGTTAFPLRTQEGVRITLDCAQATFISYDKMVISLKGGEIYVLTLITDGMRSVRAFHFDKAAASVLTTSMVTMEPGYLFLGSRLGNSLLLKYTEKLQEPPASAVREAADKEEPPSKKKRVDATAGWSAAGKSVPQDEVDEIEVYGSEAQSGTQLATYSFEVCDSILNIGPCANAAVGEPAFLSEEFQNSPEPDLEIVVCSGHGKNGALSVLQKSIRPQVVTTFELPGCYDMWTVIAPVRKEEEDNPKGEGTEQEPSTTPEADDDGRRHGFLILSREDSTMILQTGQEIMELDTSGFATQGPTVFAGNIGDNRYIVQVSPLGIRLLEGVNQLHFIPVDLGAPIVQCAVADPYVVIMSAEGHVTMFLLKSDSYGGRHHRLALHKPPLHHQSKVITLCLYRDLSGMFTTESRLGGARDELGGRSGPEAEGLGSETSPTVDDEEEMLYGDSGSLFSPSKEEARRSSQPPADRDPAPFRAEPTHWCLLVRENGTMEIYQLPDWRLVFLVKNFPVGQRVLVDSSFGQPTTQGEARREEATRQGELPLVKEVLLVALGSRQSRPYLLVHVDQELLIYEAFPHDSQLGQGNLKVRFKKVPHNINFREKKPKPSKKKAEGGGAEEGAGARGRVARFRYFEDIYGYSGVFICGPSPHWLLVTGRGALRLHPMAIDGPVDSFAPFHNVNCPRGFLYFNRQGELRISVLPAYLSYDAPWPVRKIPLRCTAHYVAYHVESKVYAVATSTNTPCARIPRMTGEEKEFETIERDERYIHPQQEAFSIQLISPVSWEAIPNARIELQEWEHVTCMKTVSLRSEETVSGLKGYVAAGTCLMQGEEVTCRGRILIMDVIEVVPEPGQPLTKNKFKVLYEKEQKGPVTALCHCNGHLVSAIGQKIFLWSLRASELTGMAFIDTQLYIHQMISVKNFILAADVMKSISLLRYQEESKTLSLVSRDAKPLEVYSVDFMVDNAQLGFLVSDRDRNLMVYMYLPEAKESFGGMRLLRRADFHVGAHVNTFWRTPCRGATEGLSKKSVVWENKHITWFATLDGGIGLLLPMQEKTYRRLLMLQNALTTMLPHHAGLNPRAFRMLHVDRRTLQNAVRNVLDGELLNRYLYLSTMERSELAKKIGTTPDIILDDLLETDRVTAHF", "sequence (Q9C0J8 1-410, chain 2 of 4)": "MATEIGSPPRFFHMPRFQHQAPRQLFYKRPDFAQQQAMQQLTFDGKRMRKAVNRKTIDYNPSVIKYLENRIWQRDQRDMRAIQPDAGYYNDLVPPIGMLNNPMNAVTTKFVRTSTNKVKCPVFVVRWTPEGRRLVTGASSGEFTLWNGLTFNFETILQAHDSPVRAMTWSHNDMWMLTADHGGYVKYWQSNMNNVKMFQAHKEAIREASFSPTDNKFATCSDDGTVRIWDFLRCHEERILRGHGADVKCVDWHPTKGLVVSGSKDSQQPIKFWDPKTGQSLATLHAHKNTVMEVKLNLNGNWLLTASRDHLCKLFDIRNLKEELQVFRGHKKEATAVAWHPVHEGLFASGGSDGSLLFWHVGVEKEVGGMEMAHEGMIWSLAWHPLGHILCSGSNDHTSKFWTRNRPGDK", "sequence (O95639 1-178, chain 3 of 4)": "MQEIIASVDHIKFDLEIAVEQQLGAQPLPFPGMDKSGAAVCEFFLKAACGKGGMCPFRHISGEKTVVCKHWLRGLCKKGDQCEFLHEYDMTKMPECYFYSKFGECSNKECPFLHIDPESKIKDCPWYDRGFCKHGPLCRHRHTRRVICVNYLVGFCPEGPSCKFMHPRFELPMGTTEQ", "sequence (Q6UN15 145-210, chain 4 of 4)": "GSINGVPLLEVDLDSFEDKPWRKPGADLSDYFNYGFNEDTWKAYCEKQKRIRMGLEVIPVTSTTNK", "assay": "cryo-EM structure"}
{"binder": "ACAAUAAAGG (ssRNA)", "note": "[10-mer PAS RNA]", "values": [{"measurement": "binding result", "value": "binds"}]}
